Test [1] deals with T1, recombinant human Tau monomer, 2N4R isoform (amino acids 2-441) (human, UniProt P10636-8 2-441).
T1 construct: range 2-441; N-terminal His-tag removed with TEV protease; also called monomeric Tau
The experiment in a line: SPR, mIgG2a captured, Tau monomer analyte, 1:1 fit. A digest of the protocol: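 Antibodies in mIgG2a format captured on anti-mouse IgG surface at 1 μg/ml (30 or 45 s) or 0.1 μg/ml (70 or 150 s), 10 μl/min, in HBSP (10 mM HEPES pH7.4, 150 mM NaCl, 0.05% Tween 20). Tau monomer flowed as analyte; association 180-480 s, dissociation 300-600 s, 1:1 fit.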
Background: Surface plasmon resonance follows binding to a sensor surface in real time, without labels.

Test [2] has as its target T2, 0N4R Tau (human, UniProt P10636-6 1-383).
T2 construct: also called 0N-Tau
The test can be described thus: indirect or sandwich ELISA on recombinant human Tau isoforms. (An ELISA detects its analyte on a solid surface through an enzyme-linked reagent.)

Test [3] concerns the target T3, full-length human Tau (flTau) (human, UniProt P10636-8 1-441).
T3 construct: range 1-441; bought (SignalChem); also called human Tau-441
The test can be described thus: SPR, hybridoma Ab on anti-IgG chip, flTau analyte. A digest of the protocol: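 Unpurified antibodies from serum-free hybridoma supernatants were captured on an anti-IgG SPR chip (Biacore T-100), and flTau was flowed as analyte. KD was obtained from kinetic analysis with a 1:1 Langmuir fit.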

The target in test [4] is T4, MAPT(10-24) (human, also: biotinylated, site not given here).
T4 construct: also called Tau fragment 10-24
T4 peptide: VMEDHAGTYGLGDRK
The experiment in a line: ELISA on Tau 15-mer peptides, O.D.; conditions of this panel not given.

The target of test [5] is T5, Tau fragment 1-15 (human, UniProt P10636-8 1-15).
T5 construct: range 1-15
T5 peptide (looked up): MAEPRQEFEVMEDHA
Described as above.

The target in test [6] is T6, Tau fragment 19-33 (human, UniProt P10636-8 19-33, not fully specified).
T6 construct: range 19-33
T6 peptide (looked up): GLGDRKDQGGYTMHQ
The test is described as above.

Test [7] concerns the target T7, Tau fragment 28-42 (human, UniProt P10636-8 28-42, not fully specified).
T7 construct: range 28-42
T7 peptide (looked up): GYTMHQDQEGDTDAG
The test is described as above.

Test [8] deals with T8, Tau fragment 37-51 (human, UniProt P10636-8 37-51).
T8 construct: range 37-51
T8 peptide (looked up): GDTDAGLKESPLQTP
The description is as above.

In test [9] the target is T9, AVI-tag biotinylated oligomeric flTau (human, UniProt P10636-8 1-441, site-specific biotin on AVI-tag).
T9 construct: also called oligoTau; oligomeric Tau
T9 sequence (P10636 other isoform, or with tags, fused parts or gaps limits assumed): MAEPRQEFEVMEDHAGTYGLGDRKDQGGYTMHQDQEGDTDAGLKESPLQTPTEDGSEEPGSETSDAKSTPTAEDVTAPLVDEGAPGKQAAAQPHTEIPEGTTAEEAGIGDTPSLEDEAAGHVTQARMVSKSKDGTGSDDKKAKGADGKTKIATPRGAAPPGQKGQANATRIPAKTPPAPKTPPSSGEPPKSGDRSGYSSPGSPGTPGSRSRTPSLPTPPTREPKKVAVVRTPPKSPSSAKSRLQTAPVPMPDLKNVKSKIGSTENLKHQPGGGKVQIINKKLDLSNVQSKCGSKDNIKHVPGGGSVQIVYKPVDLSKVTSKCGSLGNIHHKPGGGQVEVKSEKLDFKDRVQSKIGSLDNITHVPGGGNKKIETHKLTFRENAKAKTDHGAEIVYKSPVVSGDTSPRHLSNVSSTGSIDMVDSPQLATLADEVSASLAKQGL
The test can be described thus: capture ELISA, antibody on anti-IgG plate, biotinylated oligoTau titrated, O.D. As to the method:
(§1) For the oligoTau and monoTau capture ELISAs, antibodies contained in serum-free sterile hybridoma supernatants were immobilized on an anti-IgG coated plate at 500-fold dilution, followed by the incubation of oligoTau or monoTau, both with site-specific biotinylation via an AVI-tag. The target incubations started at 5 μg/mL and then were diluted 8- or 16-fold. Streptavidin-HRP and ABTS substrate was used for signal quantitation in a plate reader (Tecan, Switzerland). Results are expressed as O.D.

For test [10], the target named is T1, recombinant human Tau monomer, 2N4R …. The test can be described thus: SPR, human Fab capture kit, Tau monomer analyte. On the procedure: Affinity was assessed at 25° C. using a Biacore T200 instrument, the GE Biacore human FAb capture kit and a CM5 Series S chip. The hIgG were diluted to 0.5 μg/ml in 10 mM HEPES pH7.4, 150 mM NaCl, 0.05% Tween 20 (running buffer, HBSP) and captured at a flow rate of 10 μl/min for 180 seconds. Kinetic data was collected for Human Tau monomer injected at concentrations of 0, 0.4, 1.2, 3.7, 11, 11, 33 and 100 nM in HBSP, using a flow rate of 30 μl/min, a 300 second association phase and a 600 second dissociation phase. Between cycles the surface was regenerated using two sequential 60 second injections of 10 mM Glycine pH 2.1. Data was fit to a 1:1 binding model.

The target in test [11] is T10, AVI-tag biotinylated monomeric flTau (human, UniProt P10636-8 1-441, site-specific biotin on AVI-tag).
T10 construct: also called monoTau; monomeric Tau
The experiment in a line: capture ELISA, antibody on anti-IgG plate, biotinylated monoTau titrated, O.D. On the procedure:
as §1

Positions count from the first letter of the chain named. In names and notes the source's numbering stands. Where no end group is shown, it is not given here.

T1 sequence (P10636 other isoform, or with tags, fused parts or gaps limits assumed): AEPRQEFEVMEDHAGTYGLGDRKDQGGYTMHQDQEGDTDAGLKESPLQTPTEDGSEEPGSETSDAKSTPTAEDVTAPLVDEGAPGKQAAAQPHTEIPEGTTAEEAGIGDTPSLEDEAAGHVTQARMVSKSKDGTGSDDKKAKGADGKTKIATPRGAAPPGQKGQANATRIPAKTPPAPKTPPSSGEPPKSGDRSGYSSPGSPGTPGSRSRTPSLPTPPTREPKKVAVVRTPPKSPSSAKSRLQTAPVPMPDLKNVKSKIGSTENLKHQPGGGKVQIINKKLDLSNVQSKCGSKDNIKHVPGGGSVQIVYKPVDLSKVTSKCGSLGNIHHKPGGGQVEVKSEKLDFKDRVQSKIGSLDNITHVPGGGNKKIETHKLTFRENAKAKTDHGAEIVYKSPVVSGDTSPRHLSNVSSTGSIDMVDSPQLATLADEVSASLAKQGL
T2 sequence (P10636 other isoform, or with tags, fused parts or gaps limits assumed): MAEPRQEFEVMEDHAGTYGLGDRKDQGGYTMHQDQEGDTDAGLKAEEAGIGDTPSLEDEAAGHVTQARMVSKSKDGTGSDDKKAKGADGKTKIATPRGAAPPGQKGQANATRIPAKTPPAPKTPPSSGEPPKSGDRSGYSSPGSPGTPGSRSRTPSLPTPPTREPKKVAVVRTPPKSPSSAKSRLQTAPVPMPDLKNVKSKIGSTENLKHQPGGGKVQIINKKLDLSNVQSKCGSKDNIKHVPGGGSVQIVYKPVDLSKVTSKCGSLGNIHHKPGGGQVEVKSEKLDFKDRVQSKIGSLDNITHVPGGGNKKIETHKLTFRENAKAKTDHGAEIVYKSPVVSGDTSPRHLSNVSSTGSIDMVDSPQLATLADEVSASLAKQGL

B1: 55E7-F11 (antibody, mouse IgG2a, V domains shown)
VH: EVKLEESGGGLVQPGGSMKLSCVASGFTFSNYWMNWVRQSPEKGLEWVAQIRLKSDNYATHYAESVKGRFTISRDDSKSSVYLQMNNLRAEDTGIYYCAGYFYGGYFDVWGTGTTVTVSS
VL: ELVLTQSPTTMAASPGKKITITCSASSSISSNYLHWYQQKPGFSPKLLIYRTSNLASGVPARFSGSGSGTSYSLTIGTMEAEDVATYYCQQGSSLPFTFGSGTKLEIK
With B1, in test [1], the Kd stood at 171 nM, the off-rate (koff) is 0.04 s⁻¹ and the kon worked out at 200000 M⁻¹ s⁻¹. Further, the binding result in test [2] was “no binding (tested: not given)”.

B2: 72E12-H9 (antibody, V domains shown)
VH: B1 VH
VL: B1 VL
notes: hybridoma supernatant
As for B2, binding in [3] was characterised by a dissociation constant (Kd) of 2 nM. Moreover, the binding result in test [2] is listed as “no binding (tested: not given)”.

B3: 19H6-F7 (antibody, mouse IgG2a, V domains shown)
VH: EVQLVESGGDLVKPGGSLKLSCAASGFTFSSYGMSWVRQTPDKRLEWVATISSGGTYTYYPDSVKGRFTISRDNAKNTLYLQMSSLKSEDTAMYYCAPSYDGAMDYWGQGTSVTVSS
VL: DVLMTQTPLSLPVSLGDQASISCRSSQSIVHSNGNTYLEWYLQKPGQSPKLLIYKVSNRFSGVPDRFSGSGSGTDFTLKISRVEAEDLGVYYCFQGSLVPWTFGGGTKLEIK
As to B3, the Kd turned out to be 39 nM in test [3] and 10 nM in test [1]. In test [1], the koff came out at 0.002 s⁻¹. Also, the kon in test [1] came to 200000 M⁻¹ s⁻¹. For the same molecule, the binding result in test [4] is listed as “binds”; in [5], “no binding (tested: not given)”; in test [6] it was “no binding (tested: not given)”; in test [7] it was “no binding (tested: not given)”; in test [8] it was “no binding (tested: not given)”. In addition, in test [9], the “EC50 (read off the curve)” value was around 0.2 µg/mL.

B4: 12A10-E8 (antibody, V domains shown)
VH: QIQLVQSGPELKKPGETVKISCKASGYTFTNYGMNWVKQAPGKGLKWMGWINMYTGEPTYGDDFKGRFVFSLETSVSTVYLQINNLKKEDTATFFCARGGRPDYWGQGTSVTVSS
VL: B3 VL with S57F, S81N, F94L, L98H, W101Y
notes: hybridoma supernatant
B4 returned a dissociation constant Kd in test [3] of 0.8 nM. Further, the binding result in test [2] is given as “no binding (tested: not given)”.

B5: 3A4-H4 (antibody, mouse IgG2a, V domains shown)
VH: B3 VH with Y95F, P98T
VL: B3 VL with S28N, S97T
B5: the Kd in test [3] was 7.8 nM; in test [1] it was 12 nM. The dissociation rate constant (koff) in [1] is 0.0003 s⁻¹. For the same molecule, in [1], the kon came to 30000 M⁻¹ s⁻¹. For the same molecule, the binding result in [5], in test [6], in test [7] and in test [8] was “no binding (tested: not given)” throughout. Further, in test [9], the “EC50 (read off the curve)” value is around 0.09 µg/mL.

B6: hu37D3-H9.v28.A4 hIgG4.S228P.YTE (antibody, V domains shown)
VH: EVQLVESGGGLVQPGGSLRLSCAASGLIFRSYGMSWVRQAPGKGLEWVATINSGGTYTYYPDSVKGRFTISRDNSKNTLYLQMNSLRAEDTAVYYCANSYSGAMDYWGQGTLVTVSS
VL: DDVLTQTPLSLPVTPGQPASISCRSSQSIVHSNGNTYLEWYLQKPGQSPQLLIYKVSNRFSGVPDRFSGSGSGTDFTLKISRVEAEDVGVYYCFQGSLVPWTFGQGTKVEIKR
notes: also called hu37D3.v28.A4 hIgG4-S228P.YTE
Consider B6, for which, in [10], the Kd is 1.4 nM, the koff came to 0.0009 s⁻¹ and the on-rate (kon) was 600000 M⁻¹ s⁻¹.

B7: 30D12-B5 (antibody, V domains shown)
VH: EVQLQQSGAELVKPGASVKLSCTTSGFNIKDTYMHWVKQRPEQGLEWIGGIDPANGNTKYDPKFQGKATITADTSSNTAYLQLSSLTSEDTAVYYCAHGNFVYWGQGTLVTVSA
VL: DVVMTQTPLSLSVTIGQPASISCKSSQSLLYSNGKTYLNWFQQRPGQAPKHLMYQVSKLDPGIPDRFSGSGSETDFTLKISRVEAEDLGVYYCLQGTYYPLTFGAGTNLELK
notes: hybridoma supernatant
For the molecule B7, the affinity in [3], expressed as Kd, was 2 nM. Besides, in test [2], the binding result was “no binding (tested: not given)”.

B8: 77D1-D2 (antibody, V domains shown)
VH: EVQLQQSVAELVRPGASVTLSCTSSGFNIKNTYMHWVIQRPEQGLEWIGKIDPAIVNTKYAPKFQGKATITADTSSNTAYLQLSSLTSEDTGIYYCAEGALLYWGLGTSVTVSS
VL: B7 VL with Y31H, F41L, H51L, Q55L, L59V, L94F, L101H, A105G, N108K, L111I
notes: hybridoma supernatant
With B8, binding in test [3] was put at a Kd of 0.5 nM. In addition, the binding result in test [2] was “no binding (tested: not given)”.

B9: 89F4-A1 (antibody, mouse IgG2a, V domains shown)
VH: EVQLVESGGGLVQPKGSLKLSCAASGFTFNTYAMNWVRQAPGKGLEWVARIRSKSNNYAAYFADSVKDRFTISRDDSQTMLYLQMNNLKSEDTAMYYCVSGGNYVPFAYWGQGTLVTVSA
VL: NIMMTQSPSSLAVSAGEKVTMSCKSSQSVFYSSEQRNYLAWYQQKPGQSPKLLISWASTRESGVPDRFTGSGSGTDFTLTISSVQGEDLAVYYCHQYLSSFTFGSGTKLEIK
On to B9, for which the values for the Kd in [3] and in test [1] were 2.9 nM and 27 nM, respectively. Further, the koff in [1] came out at 0.007 s⁻¹. In test [1], the association rate constant (kon) worked out at 300000 M⁻¹ s⁻¹. The binding result in test [4] is on record as “no binding (tested: not given)”; in test [5], “no binding (tested: not given)”; in test [6], “no binding (tested: not given)”; in [7], “binds”; in [8], “binds”.

B10: 211G6-B6 (antibody, V domains shown)
VH: QVQLKESGPGLVAPSQSLSITCTVSGFSLTSYAISWVRQPPGKGLEWLGVIWTGGGTNYNSALKSRLSITKDNSKNQVFFRMNSLQTDDTARYYCARKKLYDYDGGYFFDYWGQGTTLTVSS
VL: DIVMSQSPSSLAMSVGEKVTMSCKSNQSLLYSSNQKNYLAWYQQKPGQSPKLLIYWASTRESGVPDRFTGSGSGTDFTLTISSVKAEDLAVYYCHQYYSYPWTFGGGTKLEIK
With B10, the Kd in test [3] came to 4.7 nM. Also, in [2], the binding result is on record as “no binding (tested: not given)”.

B11: 73H6-B8 (antibody, V domains shown)
VH: QVQLKESGPGLVAPSQSLSITCTISGFSLTSYGVHWVRQPPGKGLEWLVVIWSDGSTTYNSALKSRLSISKDNSKSQVFLKMNSLQTDDTAMYYCARQGGFITTAYYAMDYWGQGTSVTVSS
VL: DIVMSQSPSSLAVSAGEKVTMSCKSSQSLLNSRTRKNYLAWYQQKPGQSPKLLIYWASTRESGVPDRFTGSGSGTDFTLTISSVQAEDLAVYYCKQSYNLYTFGGGTKLEIK
notes: hybridoma supernatant
Turning to B11, the binding result in test [11] and in test [9] was “binds” each time.

As usually defined, the Kd is a measure of binding affinity in units of concentration. A word on the koff: it is a measure of how fast the partners let go of each other. Broadly, the kon is the rate constant with which the complex forms. Broadly, the EC50 (read off the curve) is the concentration that produces a half-maximal response. A low value points to higher potency in that assay.

The record behind these values is patent US20190367592A1 (AC IMMUNE, published 2019).
